Values of other authors in publication PMC7460564.
Where two headings read alike, the source gives them in different places.

Key:
[1] = molecular target: EGFR ECD (Homo sapiens) (UniProt P00533)
[2] = molecular target: EGFR ECD (Homo sapiens) (UniProt P00533); remark: listed apart in the source
[3] = molecular target: HER2 (Homo sapiens) (UniProt P04626)
[4] = molecular target: EGFR (Homo sapiens) (UniProt P00533)

Kd [1] | Kd [2] | Kd [3] | Kd [4] | Substance
15 nM |  |  |  | EGF (from UniProt P01133)
 | 5300 nM | 7.3 nM | 17.7 nM | PEPD (prolidase) (from UniProt P12955)
